# Measured values published in the RNAGym collection of RNA variant scans (doi:10.1073/pnas.2313332121).
# B1: TPR t1 (parent)
# chain: GACCAAUCUGCCCUCAGAGCUCGAGAACAUCUUCGGAUGCAGAGGAGGCAGGCUUCGGUGGCGCGAUAGCGCCAACGUCCUCAACCUCCAAUGCAUCCCACCACAUGAUGAUGCCUGAAGAGCCUUGGUUUUUUG
# Variants of: B1
# Assay: polymerase ribozyme fitness, log enrichment relative to wild type (log ratio); higher = more active; in vitro selection for triplet polymerase activity
# Outline: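 One round of in vitro selection, in triplicate, was applied to PCR-built, transcribed mutant libraries of each subunit of a heterodimeric triplet polymerase ribozyme. The steps were annealing with a biotinylated primer, partner subunit and triplets, incubation frozen at −7 °C, gel excision of extended constructs, streptavidin-bead capture and RT-PCR. Fitness is the logarithm, base 2, of genotype enrichment over wild-type enrichment from inverse-variance-weighted replicate averages of Illumina-sequenced inputs and outputs, keeping genotypes with ≥10 input reads and ≥1 read per output.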
row,Variant,polymerase ribozyme fitness (log ratio)
1,G19C G63C,-2.72
2,C49G G110A,-1.31
3,C49U G51U C62U C80A G113A C124A,-3.94
4,G42C C72A,-1.16
5,U33A G52U C115A,-4.73
6,U7C C11A G45C G58A,-0.0271
7,A2C G63U A84G U131G,-4.08
8,C15A A24U C72G C76U C123G,-6.56
9,U21G C73U,-1.84
10,U9G C70A G71A G127C,-4.46
11,U9C G60U C99A,-6.14
12,G120A,0.66
13,C13A G63U,-3.09
14,G63C C115U,-1.32
15,U14G C56G A84U U106C G110U,-5.11
16,C49A G69C,-1.8
17,C8U G61U A84C G120U,1.93
18,C4G C12A,-1.87
19,G35C C53U C56G G120A,-2.61
20,C13U U30C C80A C89U C124G,-5.32
21,A46G C70A,-1.26
22,C70G C73A,-4.66
23,G42U G52U U96A C124G,-1.76
24,A29G G61C,-2.51

row,Variant,polymerase ribozyme fitness (log ratio)
1,A37G C53A C56A A90U A91C G113C,-2.55
2,C89G U92A G122A,-4.41
3,A91G G93C G120C,-2.18
4,G39C G42U G47C,-3.36
5,A26U G52A,-4.18
6,C53U C62U A111U A118U G135A,-3.23
7,U59C C64U U81A,-1.8
8,G36A,-0.858
9,G36C,-1.27
10,C70U U78C C80A C97U U129A,-5.63
11,G35A C40G C98U C123G,-0.89
12,G61A A66G C104A,-3.27
13,C3U C86G G110C C124A,-5.57
14,C72U C79G G113C A118U,-5.9
15,A29U C53U C72G A83U U96A,-4.12
16,A26U C79G C124U,-4.91
17,C8U C70U,-0.398
18,U96C A118U,1.27
19,C80A C124A,-0.56
20,A29U C53A U129G,-2.03
21,C34U G63C A111C U132A,-4.98
22,A16C C56G G77U C115G,-3.78
23,G10U A37C G113U U129A,-5.04
24,C8G C34G G39C G120U,-4.99

row,Variant,polymerase ribozyme fitness (log ratio)
1,C3G G44U G45U C89A C94U A111U C123U U129C G135A,-4.23
2,G51U U78G U112C C123A U130A,-3.11
3,C11G G39A G60C,-0.748
4,C40U G42C G63U C85U U130A,-5.03
5,A83U C89U U96C U131G,-1.02
6,A46U G127U,-2.62
7,G10U C13A C104U,-0.097
8,C49G G77A U112G,-0.318
9,C104U G113C C123A,-3.61
10,C28A G61A G93A C123A,-3.78
11,C79U U129C,0.161
12,G71A G120U,0.349
13,U21C G42A U109A G117C,-7.38
14,C13A U92C,-3.57
15,U9G U96G,-0.204
16,G69A G93A A95C A121U,-3.33
17,G48A C53U C80U C124U,0.0289
18,A27C U54A C64A G113A,-5.44
19,G35A A37U U87G,-5.66
20,C104A U116A,-5.02
21,G60C C114A,-1.83
22,G19U C101A,-4.08
23,C12G C62G A108G,-3.58
24,G127C G128U U133A,-1.83

row,Variant,polymerase ribozyme fitness (log ratio)
1,A5C G45U C73G U81C G120A G122U,-3.02
2,C11U G71C,-0.699
3,C13U G47U,-1.97
4,G61C C104U A111C,-1.59
5,A6C C70U C73G,-2.81
6,C64U C88U G122A,-0.852
7,U54C U116A U131C,-3.16
8,C11G A68G U81A U106A G110A G113U A121G,-6.2
9,A6U C98A,-3.74
10,C20U G69U,-0.346
11,G65U G71A,-4.69
12,U7C C11U G69C,-1
13,G58C C76U C104A G113U A119C,-6.29
14,C12G C72A C104U C123U C124A,1.79
15,G51U G110A U132A,-5.7
16,U21G G60A G63C U78A C115U A119U U130A,-4.71
17,C40G G69A C79U,-2.89
18,G39A G51A C64U U78C,-3.91
19,U7G C56A G57A G93U,-1.03
20,A16G G61C,-2.19
21,U32G A37G A74G A111U U133C,-5.3
22,G19C A41C C70G G120U,-6.52
23,G19A U38C G63U C114A A121G,-4.24
24,G61A C97U C114U,-2.43

row,Variant,polymerase ribozyme fitness (log ratio)
1,G71A C72G C114U,-4.69
2,G60A C99U,-2.87
3,C3G C12G,-0.885
4,G71A G120U U126C,-1.26
5,U54C U106A C124U,2.23
6,C88U C115A,-0.441
7,C15A G61U,-0.806
8,A6U A24G A37U A43C A66U,-5.69
9,G39U A95U,-1.27
10,G51C G58A A100C C124U,-4.88
11,C22G C49G,-3.79
12,A16U G110A,-2.07
13,U9G C40A U54G U81G C85A C123G,-5.22
14,A50U G63A C124G,-0.873
15,A24G G36U G93C U112A,-5.3
16,C13U C28A G110C G120A,-1.9
17,C12A A74U,-0.922
18,U116G G117C,-2.43
19,C62A A95U,-1.55
20,C88A,-0.325
21,G71A C79G G127A,-3.33
22,C62G G120U,-1.64
23,A6U C11A C62G G120A,-2.04
24,G47U C72U,-1.71

row,Variant,polymerase ribozyme fitness (log ratio)
1,C62U G107C,-5.77
2,C101A G113A G122C,-1.6
3,C11A G48U G69U A103C,-3.74
4,C15A U33C C70U A111U,-5.94
5,C20G C115U,-4.25
6,A5U C62G,-1.69
7,G71C C73U C79G A90U,-6.83
8,U54G C85U U116G,-3.02
9,C11G C40U G47C C56A U92A,-6.34
10,C12G C64U,0.291
11,A16U C89U,-1.23
12,A46U G48A G52A C62A C88U C124U,-7.18
13,A27G C49U C123A,-1.76
14,G10U C73G,-0.976
15,U21A A27C U32G G71A U112C,-5.9
16,C12U C20U U96C,-0.583
17,C4U C12U G61A,-0.369
18,A46U C101G,-3.57
19,A6U G61A C79G,-1.4
20,A6C G71A G93C C99U C123A U130A,-7.12
21,G63U C114U,-3.25
22,A6U G42C C73G,-2.29
23,C34G C89U,-7.42
24,C49G C56A C94U A111G,-1.5

row,Variant,polymerase ribozyme fitness (log ratio)
1,A46C G57U,-0.681
2,A66U U78C C124U,0.592
3,C22A A41U A90U A121G,-5.71
4,C89U C124U,1.37
5,C11G A68U,-4.49
6,U96G G113U,-3.21
7,G48A A75G G120A,0.0402
8,C22G A83C,-3.33
9,G93C,-0.928
10,C4A C85A,-2.93
11,C4A C40U C102G C115A,-6.67
12,G69U G107A,-3.34
13,A37G C73A C82A A83G,-2.53
14,C56U C89A U92C G117U,-5.23
15,A6U A90U C114A U116G,-3.49
16,C49A U133A,-0.928
17,C22G G48A,-3.33
18,G71C G117U,-3.08
19,G44C A84C,-0.969
20,C20G U55C G57A A90G,-5.05
21,A26G C86U,-2.13
22,C94G U109A,-6.28
23,G39U A41U,-2.97
